Target: T1, CEACAM8 (human, UniProt P31997 35-320, limits assumed)
T1 sequence (looked up): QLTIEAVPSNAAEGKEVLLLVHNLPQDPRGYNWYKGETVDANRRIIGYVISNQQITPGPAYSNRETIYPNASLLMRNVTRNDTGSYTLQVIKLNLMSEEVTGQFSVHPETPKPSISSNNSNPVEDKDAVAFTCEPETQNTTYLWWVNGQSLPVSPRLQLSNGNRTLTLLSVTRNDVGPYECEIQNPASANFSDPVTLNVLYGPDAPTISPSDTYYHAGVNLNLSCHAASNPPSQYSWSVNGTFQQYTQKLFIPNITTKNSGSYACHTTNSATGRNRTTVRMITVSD
Assay: in vitro assays using human tumor cell lines (method not detailed)

binding result: no binding
B1: NEO-201 humanized IgG1 monoclonal antibody (antibody, V domains shown)
VH: QVQLVQSGAEVKKPGASVKVSCKASGYTFTDYAMHWVRQAPGQRLEWMGLISTYSGDTKYNQNFQGRVTMTVDKSASTAYMELSSLRSEDTAVYYCARGDYSGSRYWFAYWGQGTLVTVSS
VL: DIQMTQSPSSLSASVGDRVTITCQASENIYGALNWYQRKPGKSPKLLIYGASNLATGMPSRFSGSGSGTDYTFTISSLQPEDIATYYCQQVLSSPYTFGGGTKLEIKR
notes: also called h16C3; H16C3-Abb*

— US20240101702A1 (PRECISION BIOLOGICS, published 2024)
